In patent US20240174763A1 (NOVOPROTEIN SCIENTIFIC, published 2024):
Like-named read-outs stand apart in the source and are kept apart here.

T1: human CD73 on SK-OV-3 cells (human ovarian adenocarcinoma cells) (human, UniProt P21589 27-549)
T1 construct: whole, on cells; also called human CD73 positive cells
T1 sequence (looked up): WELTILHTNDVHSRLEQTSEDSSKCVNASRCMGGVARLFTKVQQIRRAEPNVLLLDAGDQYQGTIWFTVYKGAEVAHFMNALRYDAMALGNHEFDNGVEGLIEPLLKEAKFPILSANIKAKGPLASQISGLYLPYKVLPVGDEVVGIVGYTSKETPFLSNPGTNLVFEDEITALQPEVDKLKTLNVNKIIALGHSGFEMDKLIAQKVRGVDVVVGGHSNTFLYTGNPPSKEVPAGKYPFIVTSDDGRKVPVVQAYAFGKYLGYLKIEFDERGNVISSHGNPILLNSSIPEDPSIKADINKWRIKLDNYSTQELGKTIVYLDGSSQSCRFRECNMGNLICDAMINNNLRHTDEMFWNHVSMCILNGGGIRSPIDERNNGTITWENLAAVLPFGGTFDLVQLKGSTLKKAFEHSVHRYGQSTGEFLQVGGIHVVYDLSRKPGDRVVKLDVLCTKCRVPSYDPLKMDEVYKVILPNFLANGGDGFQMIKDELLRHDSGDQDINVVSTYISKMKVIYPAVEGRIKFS

T2: monkey CD73 on CHOK1-cynoCD73 cells (monkey, UniProt A0A2K5V5U7 27-549, GPI anchor at the C-terminus of the mature chain (paragraph 3 says CD73 is GPI-anchored). The propeptide 550-574 is removed.)
T2 construct: also called CHOK1-cyno73 cells; monkey CD73 positive cells
T2 sequence: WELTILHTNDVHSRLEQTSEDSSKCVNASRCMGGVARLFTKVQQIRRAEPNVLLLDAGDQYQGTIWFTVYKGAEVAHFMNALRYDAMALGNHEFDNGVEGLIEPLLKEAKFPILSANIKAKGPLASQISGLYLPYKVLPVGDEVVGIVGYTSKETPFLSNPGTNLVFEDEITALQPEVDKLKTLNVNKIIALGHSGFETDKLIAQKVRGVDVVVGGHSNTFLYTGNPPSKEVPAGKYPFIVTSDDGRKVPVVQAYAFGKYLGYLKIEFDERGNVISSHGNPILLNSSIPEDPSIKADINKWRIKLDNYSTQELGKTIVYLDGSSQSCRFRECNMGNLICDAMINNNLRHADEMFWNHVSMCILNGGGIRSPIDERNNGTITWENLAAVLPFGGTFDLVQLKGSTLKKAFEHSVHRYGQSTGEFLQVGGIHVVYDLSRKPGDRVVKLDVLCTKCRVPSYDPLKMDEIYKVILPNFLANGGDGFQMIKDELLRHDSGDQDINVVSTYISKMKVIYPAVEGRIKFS

T3: recombinant human CD73 protein (human, UniProt P21589 27-547, limits assumed)
T3 construct: Bought recombinant protein; the assays only say recombinant human CD73; also called rhCD73; recombinant hCD73 protein
T3 sequence (looked up): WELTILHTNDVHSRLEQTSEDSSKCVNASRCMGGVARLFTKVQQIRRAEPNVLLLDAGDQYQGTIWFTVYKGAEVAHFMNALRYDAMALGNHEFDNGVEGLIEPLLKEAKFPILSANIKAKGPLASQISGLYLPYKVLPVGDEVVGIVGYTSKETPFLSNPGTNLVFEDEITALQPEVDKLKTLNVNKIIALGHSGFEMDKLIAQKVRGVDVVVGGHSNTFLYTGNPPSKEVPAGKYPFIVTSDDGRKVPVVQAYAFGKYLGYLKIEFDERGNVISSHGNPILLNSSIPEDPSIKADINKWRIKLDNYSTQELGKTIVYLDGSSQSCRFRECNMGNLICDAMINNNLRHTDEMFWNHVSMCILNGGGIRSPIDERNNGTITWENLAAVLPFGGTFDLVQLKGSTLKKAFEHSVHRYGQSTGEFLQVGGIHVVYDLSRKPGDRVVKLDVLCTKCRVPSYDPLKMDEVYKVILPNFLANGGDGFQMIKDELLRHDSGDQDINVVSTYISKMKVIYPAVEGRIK

T4: recombinant monkey CD73 protein (monkey, UniProt A0A2K5V5U7 27-549)
T4 construct: Monkey species not further named for the recombinant protein (the cell line is called cynoCD73)
T4 sequence: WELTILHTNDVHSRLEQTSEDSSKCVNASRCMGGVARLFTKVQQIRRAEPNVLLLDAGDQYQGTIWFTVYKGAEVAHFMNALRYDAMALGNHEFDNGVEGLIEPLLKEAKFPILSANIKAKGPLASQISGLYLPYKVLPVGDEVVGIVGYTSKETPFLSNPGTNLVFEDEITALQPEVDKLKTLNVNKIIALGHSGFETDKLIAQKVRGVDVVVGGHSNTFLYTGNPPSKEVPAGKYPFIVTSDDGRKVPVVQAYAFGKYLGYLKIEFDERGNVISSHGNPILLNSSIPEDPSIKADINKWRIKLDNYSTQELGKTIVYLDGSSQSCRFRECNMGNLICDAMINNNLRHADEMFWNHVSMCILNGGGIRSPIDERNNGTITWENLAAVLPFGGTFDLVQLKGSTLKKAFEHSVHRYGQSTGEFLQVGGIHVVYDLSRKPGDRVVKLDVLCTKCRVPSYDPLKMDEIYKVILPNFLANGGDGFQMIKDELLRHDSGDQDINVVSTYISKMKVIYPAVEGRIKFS


Key:
[1] = biological target: T1, human CD73 on SK-OV-3 cells (human …); assay: flow cytometry on SK-OV-3 cells
[2] = biological target: T2, monkey CD73 on CHOK1-cynoCD73 cells; assay: flow cytometry on CHOK1-cynoCD73 cells
Text: The full length of monkey CD73 was constructed on a eukaryotic expression vector containing NEO resistance, CHO-K1 cells were transfected, G418 was used for screening to obtain a CHOK1-cynoCD73 cell strain.

[3] = biological target: T1, human CD73 on SK-OV-3 cells (human …); assay: flow cytometry on SK-OV-3 cells, anti-hFc-APC
[4] = biological target: T3, recombinant human CD73 protein; assay: ELISA, recombinant human CD73 coated at 3 ug/mL
[5] = biological target: T4, recombinant monkey CD73 protein; assay: ELISA, recombinant monkey CD73 coated at 3 ug/mL
Text: (§1) The combination of antibody and the recombinant monkey CD73 was detected by an ELISA method, and the result is shown in FIG. 8B.

[6] = biological target: T3, recombinant human CD73 protein; assay: ELISA, plate coated with recombinant human CD73 at 3 µg/mL
[7] = biological target: T4, recombinant monkey CD73 protein; assay: ELISA, plate coated with recombinant monkey CD73 at 3 µg/mL
Text: as §1

[8] = biological target: T3, recombinant human CD73 protein; assay: ELISA, recombinant human CD73
[9] = biological target: T4, recombinant monkey CD73 protein; assay: ELISA, recombinant monkey CD73
[10] = biological target: T1, human CD73 on SK-OV-3 cells (human …); assay: flow cytometry on SK-OV-3 cells; remark: listed apart in the source
[11] = biological target: T2, monkey CD73 on CHOK1-cynoCD73 cells; assay: flow cytometry on CHOK1-cynoCD73 cells; remark: listed apart in the source
[12] = biological target: T2, monkey CD73 on CHOK1-cynoCD73 cells; assay: flow cytometry on CHOK1-cynoCD73 cells; remark: listed apart in the source
[13] = biological target: T1, human CD73 on SK-OV-3 cells (human …); assay: flow cytometry on SK-OV-3 cells, anti-hFc-APC; remark: listed apart in the source
[14] = biological target: T3, recombinant human CD73 protein; assay: ELISA, recombinant human CD73 coated at 3 ug/mL; remark: listed apart in the source
[15] = biological target: T4, recombinant monkey CD73 protein; assay: ELISA, recombinant monkey CD73 coated at 3 ug/mL; remark: listed apart in the source

Row | Binder | EC50 [1] [µg/mL] | EC50 [2] [µg/mL] | EC50 (read off the curve) [2] [µg/mL] | EC50 (read off the curve) [3] [µg/mL] | EC50 (read off the curve) [4] [µg/mL] | EC50 (read off the curve) [5] [µg/mL] | EC50 [6] [µg/mL] | EC50 [7] [µg/mL] | EC50 [8] [µg/mL] | EC50 [9] [µg/mL] | EC50 [10] [µg/mL] | EC50 [11] [µg/mL] | EC50 (read off the curve) [12] [µg/mL] | EC50 (read off the curve) [13] [µg/mL] | EC50 (read off the curve) [14] [µg/mL] | EC50 (read off the curve) [15] [µg/mL]
1 | humanized CQ137 monoclonal antibody (137-3) (antibody, V domains shown) VH: QVQLVQSGAEVKKPGSSVKVSCKASGYSFTGYYIHWVRQAPGQGLEWMGRINPYNGATTYNQNFKDRVTITVDKSTSTAYMELSSLRSEDTAVYYCARFHYGAPDYWGQGTLVTVSS VL: DIQMTQSPSSLSASVGDRVTITCKASQDINTYLTWYQQKPGKAPKTLIYRANILVDGVPSRFSGSGSGTDFTLTISSLQPEDFATYYCLQYDEFPLTFGGGTKVEIKR | 7.03 | 0.0403 | ~0.04 | ~0.003 | ~0.3 | ~0.2 | 0.331 | 0.202 |  |  |  |  |  |  |  | 
2 | humanized CQ137 monoclonal antibody (137-1) (antibody, V domains shown) VH: QVQLVQSGAEVKKPGASVKVSCKASGYTFTGYYIHWVRQAPGQGLEWMGRINPYNGATTYNQNFKDRVTMTVDKSTSTAYMELRSLRSDDTAVYYCARFHYGAPDYWGQGTLVTVSS VL: DIQMTQSPSSLSASVGDRVTITCKASQDINTYLTWFQQKPGKAPKTLIYRANILVDGVPSRFSGSGSGQDYTLTISSLQPEDFATYYCLQYDEFPLTFGGGTKVEIKR | 2.13 | 0.0862 | ~0.09 | ~0.002 | ~0.3 |  | 0.258 | 3.76 |  |  |  |  |  |  |  | 
3 | humanized CQ137 monoclonal antibody (137-2) (antibody, V domains shown) VH: QVQLVQSGAEVKKPGASVKVSCKASGYSFTGYYIHWVRQAPGQGLEWMGRINPYNGATTYNQNFKDRVTMTVDKSTSTAYMELRSLRSDDTAVYYCARFHYGAPDYWGQGTLVTVSS VL: DIQMTQSPSSLSASVGDRVTITCKASQDINTYLTWFQQKPGKAPKSLIYRANILVDGVPSRFSGSGSGTDFTLTISSLQPEDFATYYCLQYDEFPLTFGGGTKVEIKR | 3.26 | 0.0233 | ~0.02 | ~0.007 | ~0.3 | ~0.3 | 0.275 | 0.313 |  |  |  |  |  |  |  | 
4 | humanized CQ137 monoclonal antibody (137-4) (antibody, V domains shown) VH: QVQLVQSGAEVKKPGSSVKVSCKASGYSFTGYYIHWVRQAPGQGLEWMGRINPYNGATTYNQNFKDRVTITVDKSTSTAYMELSSLRSEDTAVYYCARFHYGAVDYWGQGTLVTVSS VL: DIQMTQSPSSLSASVGDRVTITCKASQDINTYLTWYQQKPGKAPKTLIYRANILVDGVPSRFSGSGSGTDFTLTISSLQPEDFATYYCLQYEEFPLTFGGGTKVEIKR |  |  |  |  |  |  |  |  | 0.262 | 0.352 | 0.00307 | 0.00831 | ~0.008 | ~0.003 | ~0.3 | ~0.4
5 | humanized CQ137 monoclonal antibody (137-5) (antibody, V domains shown) VH: QVQLVQSGAEVKKPGSSVKVSCKASGYSFTGYYIHWVRQAPGQGLEWMGRINPYNGATTYNQNFKDRVTITVDKSTSTAYMELSSLRSEDTAVYYCARFHYGAADYWGQGTLVTVSS VL: DIQMTQSPSSLSASVGDRVTITCKASQDINTYLTWYQQKPGKAPKTLIYRANILVDGVPSRFSGSGSGTDFTLTISSLQPEDFATYYCLQYNEFPLTFGGGTKVEIKR |  |  |  |  |  |  |  |  | 0.387 | 0.734 | 0.0234 | 0.0154 | ~0.02 | ~0.02 |  | 
6 | humanized CQ137 monoclonal antibody (137-7) (antibody, V domains shown) VH: QVQLVQSGAEVKKPGSSVKVSCKASGYSFTGYYIHWVRQAPGQGLEWMGRINPYNGATTYNQNFKDRVTITVDKSTSTAYMELSSLRSEDTAVYYCARFHYGAPNYWGQGTLVTVSS VL: DIQMTQSPSSLSASVGDRVTITCKASQDINTYLTWYQQKPGKAPKTLIYRANILVDGVPSRFSGSGSGTDFTLTISSLQPEDFATYYCLQYDDFPLTFGGGTKVEIKR |  |  |  |  |  |  |  |  | 0.5 | 6.57 | 0.0301 | 0.0239 | ~0.02 |  |  | 
7 | humanized CQ137 monoclonal antibody (137-8) (antibody, V domains shown) VH: QVQLVQSGAEVKKPGSSVKVSCKASGYSFTGYYIHWVRQAPGQGLEWMGRINPYNGATTYNQNFKDRVTITVDKSTSTAYMELSSLRSEDTAVYYCARFHYGAPDFWGQGTLVTVSS VL: DIQMTQSPSSLSASVGDRVTITCKASQDINTYLTWYQQKPGKAPKTLIYRANILVDGVPSRFSGSGSGTDFTLTISSLQPEDFATYYCLQYDQFPLTFGGGTKVEIKR |  |  |  |  |  |  |  |  | 0.312 | 3.76 | 0.00487 | 0.00782 | ~0.008 | ~0.005 | ~0.3 | 
8 | humanized CQ137 monoclonal antibody (137-9) (antibody, V domains shown) VH: QVQLVQSGAEVKKPGSSVKVSCKASGYSFTGYYIHWVRQAPGQGLEWMGRINPYNGATTYNQNFKDRVTITVDKSTSTAYMELSSLRSEDTAVYYCARFHYGAPDLWGQGTLVTVSS VL: DIQMTQSPSSLSASVGDRVTITCKASQDINTYLTWYQQKPGKAPKTLIYRANILVDGVPSRFSGSGSGTDFTLTISSLQPEDFATYYCLQYDAFPLTFGGGTKVEIKR |  |  |  |  |  |  |  |  | 0.446 | 3.76 | 0.0331 | 0.0193 | ~0.02 | ~0.03 | ~0.4 | 
